Legend:
[1] = molecular target: T1, recombinant human EGFR extracellular domain with 6xHis (human, UniProt P00533 25-645); assay: SPR competition, competitor 1042
T1 construct: In-house produced; also called 6xHis EGFR ECD; soluble human EGFR ECD; not shown: 6xHis tag
How it was run: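 Read-out: percent inhibition from Ru max of each anti-EGFR mAb with and without prior competitor binding, taken at report points 2 s before and after injection. His-tagged EGFR ECD was captured via anti-His antibody on a CM5 chip.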

[2] = molecular target: T1, recombinant human EGFR extracellular …; assay: SPR, EGFR ECD without competitor
Description: (§1) SPR analysis was performed on a Biacore 3000 machine containing four flow cells. A CM5 Biacore chip was conjugated with 10,000 Resonance units (Ru) polyclonal anti-His antibody to flow cells 1-4 according to the manufacturer's instructions. […] Immediately after antigen injection the maximal binding of the Anti-EGFR mAb without competition was established in each flow cell during a reference run. Briefly 5 μl antibody at a concentration of 40 μg/ml was injected over all flow cells with captured EGFR followed by stripping of the antibody/antigen complex with a low pH acid wash (10 sec. contact time with 10 mM Glycine-HCl, pH2). After the determination of Anti-EGFR antibody maximal binding to each flow cell, a competition run was performed during the same Biacore cycle. Flow cells were first saturated with EGFR ECD antigen followed by injection of different reference antibodies or Anti-EGFR antibodies into separate flow cells using the same antigen saturating conditions as outlined above. This step was immediately followed by a second injection of Anti-EGFR antibody over the flow cell saturated with EGFR antigen and competition antibody to minimize the dissociation of either antigen or blocking antibody. Then the antibody/antigen complexes were stripped off with a low pH acid wash (10 sec. contact time with 10 mM Glycine-HCl, pH 2) and the whole cycle beginning with the reference run was repeated with a new Anti-EGFR antibody. The degree of inhibition of tested Anti-EGFR antibodies were determined by comparing the Ru max value of the individual Anti-EGFR antibody before and after competition by introduction of report points recorded two seconds before and after injection of each sample.

[3] = molecular target: T2, full length human EGFR expressed on the cell surface (human, UniProt P00533 25-1210); assay: cell ELISA, IgG titrated on unfixed A431-NS cells
T2 construct: whole, on cells; also called EGFR on A431-NS cells; EGFR on HN5 cells
Description: (§2) Cell ELISA: The ELISA was performed essentially as described in example 15 with modifications. Cells were left unfixed to allow conformational EGFR flexibility after antibody additions. Briefly, 10,000 A431-NS cells were grown in 96 well ELISA plates containing DMEM with added 0.5% FCS and 1% P/S at 37° C., 5% CO₂ overnight. […] 25 μl DMEM containing 1% BSA was added to wells used for testing of IgG antibodies without added Fab fragments. […] Next, wells were washed four times with PBS and 50 μl of a secondary monoclonal Mouse-anti-Human (Fc specific) HRP conjugate diluted 1:5000 in DMEM containing 1% BSA was added and incubated on ice for 30 min. Finally wells were washed four times with PBS and plates developed by adding 50 μl/well TMB substrate and read at 620 nm every 5-15-30 min. After incubation with substrate the reaction was stopped by addition of 1 M H₂SO₄ and absorbance read at 450 nm. The functional affinity expressed as ED50 values were calculated by subtraction of the average background binding with secondary reagent only, followed by normalization of the binding curves by plotting % maximal binding relative to each antibody tested.
(§3) Investigations of antibody induced binding enhancements were determined by concurrent ELISA binding studies, employing same secondary antibody reagent and incubation times.

[4] = molecular target: T1, recombinant human EGFR extracellular …; assay: SPR, reference cycle of the run with mix N=6
Description: as §1

[5] = molecular target: T2, full length human EGFR expressed on the …; assay: cell ELISA, IgG titrated on paraformaldehyde-fixed A431-NS cells
Description: (§4) Cell ELISA: The relative binding affinities defined as the molar concentration giving the half maximal OD (ED50) were determined by antibody titrations on A431-NS cells. Briefly, 10,000 A431-NS cells were grown in 96 well ELISA plates containing DMEM with added 0.5% FCS and 1% P/S at 37° C., 5% CO₂ overnight. […] Then 50 μl of a secondary Goat-anti-Human (Fab specific) HRP conjugate diluted 1:5000 in DMEM containing 1% BSA was added and incubated on ice for 30 min. Finally wells were washed four times with PBS and plates developed by adding 50 μl/well TMB Plus substrate and read at 620 nm every 5-15-30 min. After incubation with substrate the reaction was stopped by addition of 1 M H₂SO₄ and absorbance read at 450 nm. The functional affinity expressed as ED50 values were calculated by subtraction of the average background binding with secondary reagent only, followed by normalization of the binding curves by plotting % maximal binding relative to each antibody tested.

[6] = molecular target: T2, full length human EGFR expressed on the …; assay: FACS on CHO cells transfected with full length Human EGFR
Description: (§5) Bound antibody was detected with a PE labelled goat F(ab′)₂ anti-human IgG FC. Gating was performed on uniform cells (SCC/FCS properties) expressing EGFR. Binding is expressed as % maximal antibody binding at 1 nM concentration.
(§6) Briefly quantitative FACS analysis was performed on a BD FACS array Bioanalyzer System to determine the number of EGFR molecules expressed on the surface of CHO cells transfected with either Human or Cynomolgus full length EGFR. […] Antibodies were incubated with cells for 14 hours on a shaker, to promote full antigen saturation at all antibody concentrations tested, while FACS buffer was added 0.02% NaN₃ and temperature kept at 4° C. to prevent receptor internalization. After incubation, cells were pelleted at 1200 RPM for 5 min at 4° C. and resuspended in 200 ul FACS buffer. Next cells were stained with a secondary Goat F(ab′)₂ anti-Human IgG FcGamma PE diluted 1:500 and incubated for 30 min at 4° C. on a shaker. Finally cells were washed twice in FACS buffer and analyzed on a BD FACS array Bioanalyzer System with gating on EGFR expressing CHO cells displaying uniform forward/side scatter properties.

[7] = molecular target: T2, full length human EGFR expressed on the …; assay: cell ELISA, IgG titrated on unfixed A431-NS cells; given as ED50
Description: as §2, §3

[8] = molecular target: T3, full length Cynomolgus EGFR expressed on CHO cells (Cynomolgus monkey (Macaca fascicularis), UniProt P55245 25-1210 (rhesus entry)); assay: FACS on CHO cells transfected with full length Cynomolgus EGFR
T3 construct: The entry was cloned including the signal peptide; also called Cynomolgus full length EGFR
Description: as §5, §6

[9] = molecular target: T2, full length human EGFR expressed on the …; assay: cell ELISA, IgG titrated on paraformaldehyde-fixed A431-NS cells; given as ED50
Description: as §4

B1: antibody 1024 (antibody, human IgG1, kappa, V domains shown)
VH: QVQLQQPGAELVEPGGSVKLSCKASGYTFTSHWMHWVKQRPGQGLEWIGEINPSSGRNNYNEKFKSKATLTVDKSSSTAYMQFSSLTSEDSAVYYCVRYYGYDEAMDYWGQGTSVTVSS
VL: DIVMTQAAFSNPVTLGTSASISCRSSKSLLHSNGITYLYWYLQKPGQSPQLLIYQMSNLASGVPDRFSSSGSGTDFTLRISRVEAEDVGVYYCAQNLELPYTFGGGTKLEIKR
notes: Chimeric IgG1 kappa
Question: B1 was tested. Which “% inhibition” value [1] did it give?
Answer: 71%

Question: And the Rumax reference cycle [2]?
Answer: 100 Ru

Question: And the “Log ED50” value [3]?
Answer: -0.01

Question: And the Rumax reference cycle [4]?
Answer: 110 Ru

Question: What about the “Log ED50” value [5] of the same binder?
Answer: -0.49

Question: And the “EC50 (read off the curve)” value [6]?
Answer: ~0.01 nM

Question: What about the EC50 [7] of the same binder?
Answer: 1 nM

Question: And the “EC50 (read off the curve)” value [8]?
Answer: ~0.008 nM

Question: What about the EC50 [9] of the same binder?
Answer: 0.3 nM

— patent US20110135636A1 (SYMPHOGEN A S, published 2011)
